From PMC9372883 (Antibody Therapeutics, 2022)

B1: CCL19-H6-Flag (ligand)
chain: GTNDAEDCCLSVTQKPIPGYIVRNFHYLLIKDGCRVPAVVFTTLRGRQLCAPPDQPWVERIIQRLQRTSAKMKRRSS
B2: CCL21-H6-Flag (ligand)
chain: SDGGAQDCCLKYSQRKIPAKVVRSYRKQEPSLGCSIPAILFLPRKRSQAELCADPKELWVQQLMQHLDKTPSPQKPAQGCRKDRGASKTGKKGKGSKGCKRTERSQTPKGP

Target: T1, P9-CCR7 (human, UniProt P32248 25-378)
T1 sequence: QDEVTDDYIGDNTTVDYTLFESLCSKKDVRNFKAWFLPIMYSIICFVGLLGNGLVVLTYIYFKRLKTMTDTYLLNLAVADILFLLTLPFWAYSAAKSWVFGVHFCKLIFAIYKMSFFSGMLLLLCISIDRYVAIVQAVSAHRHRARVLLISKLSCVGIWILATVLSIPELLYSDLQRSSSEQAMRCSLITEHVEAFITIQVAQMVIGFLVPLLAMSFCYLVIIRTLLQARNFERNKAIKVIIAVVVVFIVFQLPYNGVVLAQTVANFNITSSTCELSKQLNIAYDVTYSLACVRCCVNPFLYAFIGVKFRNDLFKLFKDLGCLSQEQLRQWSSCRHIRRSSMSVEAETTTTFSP
Test: ELISA

Row | Binder | Kd [nM]
1 | B1 | 19
2 | B2 | 11
